Test results taken from patent US20260146071A1, “CCR2 INHIBITORS AND METHODS OF USE” (ORION BIOTECHNOLOGY USA Corp., priority 2022, published 2026).
Where no end group is shown, it is not given here.

These substances were tested against T1, CCR2 (Homo sapiens, UniProt P41597) (assay: CCR2 inhibitory potency assay, calcium flux method, THP-1 cells stimulated with 100 nM CCL2). Conditions: Table 3; CCR2 inhibition; read-out: mean IC50.
T1 construct: endogenous in cells; host or cells: THP-1
T1 sequence (P41597 1-360 isoform P41597-2): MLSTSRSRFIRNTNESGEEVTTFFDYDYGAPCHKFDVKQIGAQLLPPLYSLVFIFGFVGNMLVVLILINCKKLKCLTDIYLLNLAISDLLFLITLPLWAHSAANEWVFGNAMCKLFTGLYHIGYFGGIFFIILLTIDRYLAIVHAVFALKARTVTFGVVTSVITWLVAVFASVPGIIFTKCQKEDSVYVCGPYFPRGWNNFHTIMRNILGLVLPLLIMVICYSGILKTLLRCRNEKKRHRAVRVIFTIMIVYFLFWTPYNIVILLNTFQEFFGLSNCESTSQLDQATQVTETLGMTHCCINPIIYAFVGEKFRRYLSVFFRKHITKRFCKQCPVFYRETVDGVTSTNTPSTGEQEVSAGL
Format: cell-based
Method: CCR2 inhibitory potency assay was determined using the calcium flux method.
Ca^2+ flux measurements were performed using an FDSS micro-cell device ([…]). On the day of the experiment, THP-1 cells were seeded 20000 cells/well) to wells of black-walled clear-bottom 384-well plates.
THP-1 cells were loaded with a calcium-sensitive fluorescent dye (Screen Quest™ Fluo-8 No Wash Calcium Assay Kit, AAT Bioquest) according to the manufacturer's instructions, then a first addition of either test sample dilutions or vehicle alone were added. 5 minutes later, cells were stimulated with 100 nM CCL2.
“CCL2 variant, N-terminal ISWFTFNAPVT (SEQ ID NO: 22), human CCL2 Met64Nle core [CCL2-M64Nle-1P13]” gave an IC50 of 31.2 nM. “CCL2 variant, N-terminal IYGVGWNAPVT (SEQ ID NO: 14), human CCL2 Met64Nle core [CCL2-M64Nle-1P14]” gave an IC50 of 9.99 nM. With “CCL2 variant, N-terminal MYGLGWNAPVT (SEQ ID NO: 23), human CCL2 Met64Nle core [CCL2-M64Nle-1P19]” the IC50 was 32.4 nM. With “CCL2 variant, N-terminal RPYLWKAPVT (SEQ ID NO: 12), human CCL2 Met64Nle core [CCL2-M64Nle-2P5]” the IC50 was 5.83 nM. In the case of “CCL2 variant, N-terminal SPSYTRAPVT (SEQ ID NO: 31), human CCL2 Met64Nle core [CCL2-M64Nle-2P7]”, the IC50 is reported as 50.2 nM. “CCL2 variant, N-terminal TPGH(Nle)KAPVT (SEQ ID NO: 37), human CCL2 Met64Nle core [CCL2-M64Nle-2P4]” gave an IC50 of 183 nM. For “CCL2 variant, N-terminal TPGHYRAPVT (SEQ ID NO: 39), human CCL2 Met64Nle core [CCL2-M64Nle-2P3]”, the IC50 was 225 nM. “CCL2 variant, N-terminal TPGYLKAPVT (SEQ ID NO: 19), human CCL2 Met64Nle core [CCL2-M64Nle-NGS-MEO-5]” was tested, and the IC50 was 18.4 nM. In the case of “CCL2 variant, N-terminal VPDWSQAPVT (SEQ ID NO: 18), human CCL2 Met64Nle core [CCL2-M64Nle-1P22]”, the IC50 is reported as 15.3 nM. Substance “CCL2 variant, N-terminal VTNPTWAPVT (SEQ ID NO: 20), human CCL2 Met64Nle core [CCL2-M64Nle-1P02-F1V]” has an IC50 of 24.6 nM. “CCL2 variant, N-terminal WRPHWSAPVT (SEQ ID NO: 25), human CCL2 Met64Nle core [CCL2-M64Nle-1P3]” gave an IC50 of 32.8 nM. With “CCL2 variant, N-terminal WVLSSLNAPVT (SEQ ID NO: 17), human CCL2 Met64Nle core [CCL2-M64Nle-1P5]” the IC50 was 14.2 nM. “CCL2 variant, N-terminal WYTVGWNAPVT (SEQ ID NO: 21), human CCL2 Met64Nle core [CCL2-M64Nle-1P16]” gave an IC50 of 26.7 nM. “CCL2-M64Nle-NGS-MESR-1 (SYSWVR; also: part of CCL2 M64Nle construct, placement of chain in protein not given here)” gave an IC50 of 155 nM. Substance “CCL2-M64Nle-NGS-MESR-5 (AWGGIR; also: part of CCL2 M64Nle construct, placement of chain in protein not given here)” has an IC50 of 41.5 nM.

Same assay, conditions: Table 4; CCR2 inhibition; read-out: mean IC50
In the case of “CCL2 variant, N-terminal FTNPTWRPST (SEQ ID NO: 80), human CCL2 11-76 Met64Nle core (not fully specified (C-terminus); also: followed C-terminally by human CCL2 11-76 core with Met64Nle) [3P5-CCL2]”, the IC50 is reported as 2.86 nM. Substance “CCL2 variant, N-terminal FTNPTWSGVT (SEQ ID NO: 81), human CCL2 11-76 Met64Nle core (not fully specified (C-terminus); also: followed C-terminally by human CCL2 11-76 core with Met64Nle) [3P6-CCL2]” has an IC50 of 1.27 nM. For “CCL2 variant, N-terminal FTNPTWSQGV (SEQ ID NO: 94), human CCL2 11-76 Met64Nle core (not fully specified (C-terminus); also: followed C-terminally by human CCL2 11-76 core with Met64Nle) [3P19-CCL2]”, the IC50 was 0.914 nM.
